Blank lines part the entries; values can stand above or below the binder they belong to.
Molecular target: T1, Av1 antibody
T1 construct: also called parental AV1 antibody; anti-IL6R antibody
Assay: FACS of the peptide displayed on cells

T1 sequence (heavy, as listed by the source, chain 1 of 2): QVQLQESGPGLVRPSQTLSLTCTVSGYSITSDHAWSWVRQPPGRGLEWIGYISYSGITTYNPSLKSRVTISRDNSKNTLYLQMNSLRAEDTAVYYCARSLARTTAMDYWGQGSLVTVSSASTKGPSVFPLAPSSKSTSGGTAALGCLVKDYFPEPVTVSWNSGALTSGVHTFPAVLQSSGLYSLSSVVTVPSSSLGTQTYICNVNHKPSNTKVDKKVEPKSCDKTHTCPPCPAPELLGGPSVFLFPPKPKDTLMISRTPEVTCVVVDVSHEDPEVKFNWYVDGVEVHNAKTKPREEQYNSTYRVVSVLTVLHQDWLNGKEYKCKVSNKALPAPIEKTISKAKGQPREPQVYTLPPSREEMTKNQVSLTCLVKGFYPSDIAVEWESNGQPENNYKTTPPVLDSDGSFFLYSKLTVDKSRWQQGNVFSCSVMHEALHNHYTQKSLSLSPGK
T1 sequence (light, as listed by the source, chain 2 of 2): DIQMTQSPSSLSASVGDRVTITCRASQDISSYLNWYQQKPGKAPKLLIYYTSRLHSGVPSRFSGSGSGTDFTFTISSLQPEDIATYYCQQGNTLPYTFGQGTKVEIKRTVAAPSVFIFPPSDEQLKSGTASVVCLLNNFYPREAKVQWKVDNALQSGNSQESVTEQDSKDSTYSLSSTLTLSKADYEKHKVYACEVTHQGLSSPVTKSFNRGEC

binding result: binds
B1: Peptide 2 (SEQ ID NO: 34) (peptide)
peptide: PGAFDIPFPAHWVPNT
notes: also called 4280; parental peptide

binding result: binds
B2: Peptide 1 (SEQ ID NO: 33) (peptide)
peptide: YRSCNWNYVSIFLDC
notes: also called 4278; parental peptide

From US20200339694A1 (CYTOMX THERAPEUTICS, published 2020)
